Results reported in patent US20240218060A1 (Hoffmann-La Roche, published 2024).

Molecular target: T1, human neonatal Fc-receptor (FcRn) (human, UniProt P55899 24-297; P61769 21-119)
T1 construct: also called human FcRn; huFcRn
Experiment: SPR (BIAcore T100), FcRn immobilised on a CM5 chip, 200 nM antibody, PBS 0.05% Tween20 pH 6.0
Method: The binding properties of wild-type antibody and the mutants to FcRn were analyzed by surface plasmon resonance (SPR) technology using a BIAcore T100 instrument (BIAcore AB, Uppsala, Sweden). […] In the current assay, the FcRn receptor was immobilized onto a BIAcore CM5-biosensor chip (GE Healthcare Bioscience, Uppsala, Sweden) via amine coupling to a level of 400 Response units (RU). The assay was carried out at room temperature with PBS, 0.05% Tween20 pH 6.0 (GE Healthcare Bioscience) as running and dilution buffer. 200 nM of samples were injected at a flow rate of 50 μL/min at room temperature. Association time was 180 sec., dissociation phase took 360 sec. Regeneration of the chip surface was reached by a short injection of HBS-P, pH 8.0. Evaluation of SPR-data was performed by comparison of the biological response signal height at 180 sec. after injection and at 300 sec. after injection. The corresponding parameters are the RU max level (180 sec. after injection) and late stability (300 sec. after end of injection).

T1 sequence (P55899 24-297 limits assumed, chain 1 of 2): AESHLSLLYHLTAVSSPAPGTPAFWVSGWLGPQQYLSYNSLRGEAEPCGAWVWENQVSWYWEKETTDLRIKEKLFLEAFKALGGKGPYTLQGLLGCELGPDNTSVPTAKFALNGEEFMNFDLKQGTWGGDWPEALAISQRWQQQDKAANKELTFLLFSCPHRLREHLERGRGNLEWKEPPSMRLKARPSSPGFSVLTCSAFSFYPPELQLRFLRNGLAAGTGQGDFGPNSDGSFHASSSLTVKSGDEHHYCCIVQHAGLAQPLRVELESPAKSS
T1 sequence (P61769 21-119 limits assumed, chain 2 of 2): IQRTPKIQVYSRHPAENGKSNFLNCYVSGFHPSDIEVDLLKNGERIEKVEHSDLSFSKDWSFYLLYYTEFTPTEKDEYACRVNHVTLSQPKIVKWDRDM

B1: YTE-mutant of anti-IGF-1R antibody (antibody, human IgG1, kappa)
light: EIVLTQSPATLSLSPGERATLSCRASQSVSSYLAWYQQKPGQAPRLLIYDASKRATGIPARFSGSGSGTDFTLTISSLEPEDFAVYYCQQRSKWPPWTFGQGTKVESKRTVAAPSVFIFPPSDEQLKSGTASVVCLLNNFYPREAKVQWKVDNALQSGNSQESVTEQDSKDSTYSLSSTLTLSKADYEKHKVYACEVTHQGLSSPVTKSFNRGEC
heavy: QVELVESGGGVVQPGRSQRLSCAASGFTFSSYGMHWVRQAPGKGLEWVAIIWFDGSSTYYADSVRGRFTISRDNSKNTLYLQMNSLRAEDTAVYFCARELGRRYFDLWGRGTLVSVSSASTKGPSVFPLAPSSKSTSGGTAALGCLVKDYFPEPVTVSWNSGALTSGVHTFPAVLQSSGLYSLSSVVTVPSSSLGTQTYICNVNHKPSNTKVDKKVEPKSCDKTHTCPPCPAPELLGGPSVFLFPPKPKDTLYITREPEVTCVVVDVSHEDPEVKFNWYVDGVEVHNAKTKPREEQYNSTYRVVSVLTVLHQDWLNGKEYKCKVSNKALPAPIEKTISKAKGQPREPQVYTLPPSRDELTKNQVSLTCLVKGFYPSDIAVEWESNGQPENNYKTTPPVLDSDGSFFLYSKLTVDKSRWQQGNVFSCSVMHEALHNHYTQKSLSLSPG
notes: also called <IGF-1R> IgG1 with M252Y, S254T, T256E; anti-IGF-1R IgG1 with YTE mutation
B1: binds.
